The record followed here is ChEMBL document CHEMBL2074411.

Substrate in this data set: NCCc1ccc(O)c(O)c1
The data set is described as follows: cells, lysate or membranes named.

As usually defined, the Km is the concentration of substrate that gives half-maximal velocity.

B1: Solute carrier family 22 member 2 (Rattus norvegicus) (protein)
chain: MSTVDDILEHIGEFHLFQKQTFFLLALLSGAFTPIYVGIVFLGFTPDHHCWSPGAAKLSQRCGWSQAEELNYTVPGLGPSDEASFLSQCMRYEVDWNQSTLDCVDPLSSLAADRNQLPLGPCEHGWVYNTPGSSIVTEFNLVCAHSWMLDLFQSVVNVGFFIGAMMIGYLADRFGRKFCLLVTILINAISGALMAISPNYAWMLVFRFLQGLVSKAGWLIGYILITEFVGLGYRRMVGICYQIAFTVGLLILAGVAYVIPNWRWLQFAVTLPNFCFLLYFWCIPESPRWLISQNKIVKAMKIIKHIAKKNGKSVPVSLQNLTPDEDAGKKLNPSFLDLVRTPQIRKHTLILMYNWFTSSVLYQGLIMHMGLAGDNIYLDFFYSALVEFPAAFIIILTIDRVGRRYPWAVSNMVAGAACLASVFIPDDLQWLKITIACLGRMGITMAYEMVCLVNAELYPTYIRNLGVLVCSSMCDIGGIITPFLVYRLTDIWMEFPLVVFAVVGLVAGALVLLLPETKGKALPETIEDAENMQRPRKKKEKRIYLQVKQADRPLS
Turning to B1, the Km was determined as 2300 µM.
